Test results: the supplement of paper PMC9732359
± gives the uncertainty stated by the source.

Assay: protein stability index of a GFP-peptide fusion (yeast GPS) (PSI 1-4); higher = more stable; sorted into four equal gates, so the index is relative within each strain
Outline: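 Tiled 17-residue peptides from yeast proteins were fused downstream of GFP on a plasmid that also expresses Cherry, and the pooled library was carried in yeast. Mid-log cultures grown in leucine-free medium were sorted into four equal gates by GFP/Cherry fluorescence ratio. Plasmids from each gate were PCR-amplified and Illumina-sequenced, and reads were assigned to strains by barcodes. Each peptide's protein stability index is the sum, over gates, of the gate's read frequency multiplied by its gate number.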

AGHVSGVITVHNVFSKE [RPN14]
protein stability index (doa10∆): 1.85 ± 0.15 | protein stability index (pdr5∆): 1.75 ± 0.14 | protein stability index (san1∆): 2.92 ± 0.077 | protein stability index (ubr1∆): 2.79 ± 0.13

NHKSKDNNNGDDDDEDD [SKP1]
protein stability index (doa10∆): 3.13 ± 0.075 | protein stability index (pdr5∆): 3.14 ± 0.069 | protein stability index (san1∆): 3.16 ± 0.05 | protein stability index (ubr1∆): 3.14 ± 0.049

ADYNGALLRVTKSKNKT [POP4]
protein stability index (doa10∆): 2.61 ± 0.066 | protein stability index (pdr5∆): 2.14 ± 0.058 | protein stability index (san1∆): 2.42 ± 0.077 | protein stability index (ubr1∆): 2.36 ± 0.053

DHRKRKKSKIQLLDIAE [LIN1]
protein stability index (pdr5∆): 2.8 ± 0.23 | protein stability index (san1∆): 3.19 ± 0.17 | protein stability index (ubr1∆): 3.32 ± 0.18

GVRDINCVNDVLEFCKD [POP1]
protein stability index (doa10∆): 2.93 ± 0.18 | protein stability index (pdr5∆): 2.82 ± 0.18 | protein stability index (san1∆): 2.36 ± 0.24 | protein stability index (ubr1∆): 3.09 ± 0.26

YSSWSAQTIGRNSKTVR [PRE6]
protein stability index (doa10∆): 2.62 ± 0.14 | protein stability index (pdr5∆): 2.9 ± 0.14 | protein stability index (san1∆): 2.91 ± 0.12 | protein stability index (ubr1∆): 2.85 ± 0.098

TTTSFTTSEATANDRQI [RPN4]
protein stability index (doa10∆): 2.95 ± 0.051 | protein stability index (pdr5∆): 3.13 ± 0.055 | protein stability index (san1∆): 2.55 ± 0.063 | protein stability index (ubr1∆): 3.25 ± 0.042

GKLVESEDSMNVQLRDV [SMD3]
protein stability index (doa10∆): 3.26 ± 0.14 | protein stability index (pdr5∆): 3.32 ± 0.1 | protein stability index (san1∆): 3.33 ± 0.065 | protein stability index (ubr1∆): 3.26 ± 0.041

LHTARKILVLTGAGVST [SIR2]
protein stability index (doa10∆): 2.06 ± 0.052 | protein stability index (pdr5∆): 1.56 ± 0.054 | protein stability index (san1∆): 2.33 ± 0.082 | protein stability index (ubr1∆): 2.29 ± 0.059

GEIIDISAFTQFLRLIF [ARP9]
protein stability index (doa10∆): 2.45 ± 0.08 | protein stability index (pdr5∆): 2.23 ± 0.075 | protein stability index (san1∆): 2.59 ± 0.11 | protein stability index (ubr1∆): 2.94 ± 0.065

IQLQEFLLSAMTMASKS [NSL1]
protein stability index (doa10∆): 1.5 ± 0.058 | protein stability index (pdr5∆): 1.83 ± 0.1 | protein stability index (san1∆): 1.81 ± 0.09 | protein stability index (ubr1∆): 1.93 ± 0.059

FAKQVDVQLERVADEDA [IRR1]
protein stability index (doa10∆): 3.15 ± 0.15 | protein stability index (pdr5∆): 3.13 ± 0.29 | protein stability index (san1∆): 2.76 ± 0.26

FSFGKPFFSSNTSSLQS [YIL149C/MLP2]
protein stability index (doa10∆): 2.95 ± 0.054 | protein stability index (pdr5∆): 3.07 ± 0.052 | protein stability index (san1∆): 2.86 ± 0.046 | protein stability index (ubr1∆): 2.926 ± 0.028

EELDITPLFPIDRNSTI [IRR1]
protein stability index (doa10∆): 2.48 ± 0.11 | protein stability index (pdr5∆): 2.9 ± 0.14 | protein stability index (san1∆): 2.9 ± 0.095 | protein stability index (ubr1∆): 2.8 ± 0.1

YLKHVSRRFKNGFQTGS [RPL37A]
protein stability index (doa10∆): 2.06 ± 0.085 | protein stability index (pdr5∆): 3.23 ± 0.062 | protein stability index (san1∆): 3.16 ± 0.084 | protein stability index (ubr1∆): 3.46 ± 0.056

MERLDGDYNNTVYSSEQ [SMC3]
protein stability index (doa10∆): 2.94 ± 0.11 | protein stability index (pdr5∆): 3.18 ± 0.12 | protein stability index (san1∆): 3.25 ± 0.071 | protein stability index (ubr1∆): 3.16 ± 0.042

TKYSDVLGFLQLFHNLI [YJL039C/NUP192]
protein stability index (doa10∆): 2.75 ± 0.063 | protein stability index (pdr5∆): 2.65 ± 0.062 | protein stability index (san1∆): 2.86 ± 0.048 | protein stability index (ubr1∆): 2.94 ± 0.049

PQVKIREASKDNVDFIL [RPB3]
protein stability index (doa10∆): 2.55 ± 0.065 | protein stability index (pdr5∆): 2.12 ± 0.033 | protein stability index (san1∆): 2.88 ± 0.073 | protein stability index (ubr1∆): 1.77 ± 0.037

RQLSPHTLMSFAGEAGD [PRE1]
protein stability index (doa10∆): 1.69 ± 0.052 | protein stability index (pdr5∆): 1.87 ± 0.057 | protein stability index (san1∆): 1.83 ± 0.12 | protein stability index (ubr1∆): 1.96 ± 0.041

EAQIKDWVENELEALKL [FAS2]
protein stability index (doa10∆): 1.96 ± 0.14 | protein stability index (pdr5∆): 1.25 ± 0.091 | protein stability index (ubr1∆): 2.01 ± 0.1

YSSRVDSVTTETGKLLS [BRN1]
protein stability index (doa10∆): 2.38 ± 0.13 | protein stability index (pdr5∆): 2.46 ± 0.14 | protein stability index (san1∆): 2.34 ± 0.21 | protein stability index (ubr1∆): 2.11 ± 0.18

ETVAKSKNAERKWAARA [RPS8A]
protein stability index (doa10∆): 3.184 ± 0.028 | protein stability index (pdr5∆): 3.362 ± 0.027 | protein stability index (san1∆): 3.196 ± 0.018 | protein stability index (ubr1∆): 3.315 ± 0.021

STVQTPITASMAAALPN [PGD1]
protein stability index (doa10∆): 1.59 ± 0.074 | protein stability index (pdr5∆): 1.55 ± 0.099 | protein stability index (san1∆): 1.37 ± 0.11 | protein stability index (ubr1∆): 1.4 ± 0.05

FSSKNEWRKSAIANTLL [PRP8]
protein stability index (doa10∆): 2.99 ± 0.056 | protein stability index (pdr5∆): 2.79 ± 0.045 | protein stability index (san1∆): 2.94 ± 0.053 | protein stability index (ubr1∆): 2.72 ± 0.045

EANGATSFDRTKKTITP [RPL3]
protein stability index (doa10∆): 3.12 ± 0.15 | protein stability index (pdr5∆): 2.91 ± 0.15 | protein stability index (san1∆): 2.74 ± 0.12 | protein stability index (ubr1∆): 3.17 ± 0.27

FTQLKKNIPKTRYNRDY [SNU114]
protein stability index (doa10∆): 2.48 ± 0.052 | protein stability index (pdr5∆): 2.59 ± 0.056 | protein stability index (san1∆): 2.98 ± 0.04 | protein stability index (ubr1∆): 2.79 ± 0.051

LSLEEVEGHLFEIIDEA [FAS1]
protein stability index (doa10∆): 3.01 ± 0.11 | protein stability index (pdr5∆): 3.29 ± 0.1 | protein stability index (san1∆): 3.09 ± 0.063 | protein stability index (ubr1∆): 3.07 ± 0.069

LKENTYVMERPKNVPTS [YDL116W/NUP84]
protein stability index (doa10∆): 1.81 ± 0.1 | protein stability index (pdr5∆): 2.13 ± 0.12 | protein stability index (san1∆): 2.79 ± 0.15 | protein stability index (ubr1∆): 2.96 ± 0.093

LESVGIEIEDEKVSSVL [RPP2A]
protein stability index (doa10∆): 3.04 ± 0.075 | protein stability index (pdr5∆): 2.67 ± 0.12 | protein stability index (san1∆): 2.77 ± 0.12 | protein stability index (ubr1∆): 2.78 ± 0.094

YIGEFEYIDDHRSGKIV [RPS22A]
protein stability index (doa10∆): 2.9 ± 0.057 | protein stability index (pdr5∆): 3.13 ± 0.061 | protein stability index (san1∆): 2.99 ± 0.051 | protein stability index (ubr1∆): 3.01 ± 0.043

VLLTFLQDELHKVSSQS [YCS4]
protein stability index (doa10∆): 3.54 ± 0.17 | protein stability index (pdr5∆): 3.45 ± 0.2 | protein stability index (san1∆): 2.95 ± 0.23 | protein stability index (ubr1∆): 3.27 ± 0.13

PAWFNNPRKRAIPNSII [YMR153W/NUP53]
protein stability index (doa10∆): 2.62 ± 0.084 | protein stability index (pdr5∆): 2.94 ± 0.083 | protein stability index (san1∆): 3.21 ± 0.079 | protein stability index (ubr1∆): 3.25 ± 0.084

SANPKKTTITRVEPETF [SWI3]
protein stability index (doa10∆): 2.86 ± 0.065 | protein stability index (pdr5∆): 3.06 ± 0.068 | protein stability index (san1∆): 3.03 ± 0.052 | protein stability index (ubr1∆): 2.95 ± 0.051

MSMSSTVIKFRAGVCEY [RPN13]
protein stability index (pdr5∆): 2.58 ± 0.18 | protein stability index (san1∆): 2.22 ± 0.13

SKSGRIFALVFSSNERY [RPN13]
protein stability index (doa10∆): 2.45 ± 0.1 | protein stability index (pdr5∆): 2.74 ± 0.086 | protein stability index (san1∆): 2.28 ± 0.11 | protein stability index (ubr1∆): 2.62 ± 0.049

EISSQIEILVKDNECSS [RRI2]
protein stability index (doa10∆): 1.5 ± 0.11 | protein stability index (pdr5∆): 1.25 ± 0.15 | protein stability index (ubr1∆): 1.16 ± 0.069

PDMMVDSFTMPNISHSN [SNF2]
protein stability index (doa10∆): 3.28 ± 0.11 | protein stability index (pdr5∆): 2.84 ± 0.098 | protein stability index (san1∆): 2.72 ± 0.087 | protein stability index (ubr1∆): 3.18 ± 0.093

EYSRDCFCEDHCDKCSV [RPB3]
protein stability index (doa10∆): 3.13 ± 0.19 | protein stability index (pdr5∆): 3.51 ± 0.15 | protein stability index (san1∆): 3.24 ± 0.18 | protein stability index (ubr1∆): 2.98 ± 0.2

LMYQIKKECALLISYGV [SRB4]
protein stability index (doa10∆): 1.9 ± 0.12 | protein stability index (pdr5∆): 3.09 ± 0.16 | protein stability index (san1∆): 2.12 ± 0.19 | protein stability index (ubr1∆): 1.93 ± 0.15

SSLPPGEILLPDIADIP [SNF5]
protein stability index (doa10∆): 3.12 ± 0.074 | protein stability index (pdr5∆): 3.25 ± 0.063 | protein stability index (san1∆): 3.19 ± 0.076 | protein stability index (ubr1∆): 3.25 ± 0.048

HAIIIFGYPETIANSII [YMR153W/NUP53]
protein stability index (doa10∆): 1.91 ± 0.078 | protein stability index (pdr5∆): 2.04 ± 0.065 | protein stability index (san1∆): 2.17 ± 0.098 | protein stability index (ubr1∆): 2.92 ± 0.046
